Experiments:
Assay type in all cases: biochemical
[1] = target: T1, (5)M2+TE (Saccharopolyspora erythraea, UniProt Q03131+Q03133); assay: Substrate transfer and elongation assay, acceptor DEBS module 2; conditions: 20 μM substrate, 2 hours
T1 construct: The protein was, in each case, a single module of the DEBS PKS fused to the thioesterase (TE) termination region of module 6; first 39 amino acids of module 5 (N-ERL); made in house; host or cells: E. coli (BL21(DE3) with sfp)
Description: (§1) Substrate transfer and elongation assays. Qualitative assays were performed with a diketide-ACP or diketide-PCP substrate either taken directly from the so phosphopantetheinlyation reaction or after further purification of the substrate. These assays were performed with 20 μM diketide-ACP/PCP substrate for 2 hours in the following reaction conditions: 1 μM acceptor module, 0.5 mM ^14C-methylmalonyl CoA, 4 mM NADPH in buffer C, 30° C. After quenching by addition of 250 μL EtOAc and vortexing, the products were extracted with 2×250 μL EtOAc, resolved on a silica gel TLC plate, and visualized on a Packard InstantImager.
(§2) The kinetics of substrate transfer at the module 2-module 3 interface followed by elongation and product release were examined as a function of the k60 μM and kcat/KM values of the overall reaction. […] In many cases, the k60μm values approximate the maximal overall turnover rates, as determined by back calculating the KM value for the reactions. True saturation kinetics were not practical because of the technical limitations (e.g., solubility) and limited supply associated with high molecular weight substrates such as diketide-ACP and diketide-PCP. kcat/KM values were determined by competitive assay of the substrate of interest against a substrate with a known kcat/KM value, as previously described (Wu, et al., (2001) J. Am. Chem. Soc. 123, 6465-6474). […]

[2] = target: T2, (5)M6+TE (Saccharopolyspora erythraea, UniProt Q03133, DEL53-1503); assay: Substrate transfer and elongation assay, acceptor DEBS module 6; conditions: 20 μM substrate, 2 hours
T2 construct: The protein was, in each case, a single module of the DEBS PKS fused to the thioesterase (TE) termination region of module 6; first 39 amino acids of module 5 (N-ERL); made in house; host or cells: E. coli (BL21(DE3) with sfp)
Description: as §1, §2

[3] = target: T1, (5)M2+TE; assay: Labeling of holo-ACP4(4) with 14C-2a mediated by (5)M2+TE (back-transfer); conditions: 20 μM holo-ACP4(4), 1 mM 14C-2a, with and without 1 μM (5)M2+TE
Description: Labeling of Holo-ACP4(4) with ^14C-2a Mediated by (5)M2+TE. Holo-ACP4(4) (20 μM) was incubated with 1 mM [1-^14C]-labeled 2a (custom synthesized by Amersham Pharmacia, specific activity 55 mCi/mmol) and 1 μM (5)M2+TE in reaction buffer C for 10 min at 30° C. The protein was precipitated with 75% acetone/H2O for 5 min at −80° C. After washing the pellet with 6.25% (w/v) TCA to remove excess salts followed by 500 μL of 75% acetone/H2O to remove residual, unbound 14 C-2a, the precipitated protein was resuspended in 8 μL of buffer A and 4 μL of SDS sample buffer, and resolved on a 420% SDS-PAGE gradient gel (Bio-Rad). The proteins were visualized with Coomassie blue stain and dried, and the radioactivity was detected either on a Packard InstantImager or by exposing the gel to X-ray film.

Molecule	qualitative transfer of diketide to (5)M2+TE [1]	qualitative transfer of diketide to (5)M6+TE [2]	radiolabeling of the ACP by 14C-2a [3]
diketide-ACP2(Ø): diketide on isolated ACP2 domain without linker region (conjugate) HHHHHHDRLAGLPRAERTAELVRLVRTSTATVLGHDDPKAVRATTPFKELGFDSLAAVRLRNLLNAATGLRLPSTLVFDHPNASAVAGFLDAELG	able to channel the diketide substrate	able to channel the diketide substrate	
diketide-eryLDD(Ø): diketide on the DEBS loading didomain with no C-terminal linker (conjugate, non-natural residues, diketide on the DEBS loading didomain with no C-terminal linker) MSGPRSRTTSRRTPVRIGAVVVASSTSELLDGLAAVADGRPHASVVRGVARPSAPVVFVFPGQGAQWAGMAGELLGESRVFAAAMDACARAFEPVTDWTLAQVLDSPEQSRRVEVVQPALFAVQTSLAALWRSFGVTPDAVVGHSIGELAAAHVCGAAGAADAARAAALWSREMIPLVGNGDMAAVALSADEIEPRIARWDDDVVLAGVNGPRSVLLTGSPEPVARRVQELSAEGVRAQVINVSMAAHSAQVDDIAEGMRSALAWFAPGGSEVPFYASLTGGAVDTRELVADYWRRSFRLPVRFDEAIRSALEVGPGTFVEASPHPVLAAALQQTLDAEGSSAAVVPTLQRGQGGMRRFLLAAAQAFTGGVAVDWTAAYDDVGPNPALCRSSRRPRRKTSRPSPASTGTRHRTCCERLLAVVNGETAALAGREADAEATFRELGLDSVLAAQLRAKVSAAIGREVNIALLYDHPTPRALAEALAAGT	able to channel the diketide substrate	able to channel the diketide substrate	
holo-ACP4(4): phosphopantetheinylated DEBS ACP4 domain with its natural C-terminal linker (protein) HHHHHHNVVDRLAGRSESDQVAGLAELVRSHAAAVSGYGSADQLPERKAFKDLGFDSLAAVELRNRLGTATGVRLPSTLVFDHPTPLAVAEHLRDRLFAASPAVDIGDRLDELEKALEALSAEDGHDDVGQRLESLLRRWNSRRADAPSTSAISEDASDDELFSMLDQRFGGGEDL			radiolabeled only in the reaction containing (5-M2+TE
